According to the nanobody polyreactivity screen of Harvey et al. (2022):

Test: yeast display, Sf9 membrane polyspecificity reagent, FACS + sequencing; frameworks hold sequencing errors
How it was run: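 Genes from sorted yeast were amplified by colony PCR, read by MiSeq 2 × 250 sequencing and filtered on CDR length. These cells carried a synthetic nanobody library in Saccharomyces cerevisiae BJ5465 and were sorted by FACS into low and high (top ~1%) gates on anti-HA and streptavidin fluorescence. Polyreactivity is labelled according to the gate of origin.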

Sequence	polyreactivity (PSR sort gate)
QVQLVESGGGLVQAGGSLRLSCAAYGRTFIVNTMGWYRQAPGKERQLVAAITARGGRTYYADSVKGRFTISRDNAKNTVYLQMNSLKPEDTAVYYCNARTPPREAERYYWGQGTQVTVSS	low polyreactivity
QVQLVESGGGLVQAGGSLRLSCAAYGRTFRTNAMGWYRQAPGKERELVAAISTGGGITNYADSVKGRFTISRDNAKNTVYLQMNSLKPEDTAVYYCNADIYTWFQIGGYQYDYWGQGTQVTVSS	low polyreactivity
QVQLVESGGGLVQAGGSLRLSCAAYGRTFSHYAMGWYRQAPGKERELVAGITSGGRTYYADSVKGRFTISRDNAKNTVYLQMNSLKPEDTEVYYCAIRRYTAIWYGYWGQGTQETVSS	high polyreactivity
QVQLVESGGGLVQAGGSLRLSCAAYGRTLRPYAMGWYRQAPGKERELVASIRRDGSTYADSVKGRYTISLDNAKNTVYLQMNSLKPEDTAVYYCAAARGYPLSYWGQGTQVTVSS	low polyreactivity
QVQLVESGGGLVQAGGSLRLSCAAYGSIFDHYAMVWNRQAPGKERELVAAITYSDGSTYYADSVKGRFTISRDNAKNTVYLQMKSLKPEDTAVYYCAAYPRGSQRYNYWGQGTQVTVSS	high polyreactivity
QVQLVESGGGLVQAGGSLRLSCAAYGSIFDVHAMGWNRQAPGKERELVAAISDSGGSTYYADSVKGRFTISRDNAKNTVYLLMKSLKPDDTAVYYCNADWSWFNYYDFDYWGQGTHVTVSS	low polyreactivity
QVQLVESGGGLVQAGGSLRLSCAAYGSIFSTYAMGWYRQAPGKERELVAAISRSGGSTYYADSVKGRFTISRDNAKNTVYLQMNSLKPEDTAVYYCAKVGRRQRYDYWGQGTQVTVSS	high polyreactivity
QVQLVESGGGLVQAGGSLRLSCAAYGSIFWYYAMGWYRQAHGKERELVAAISASGSSTYYADSVKGRLTISRDNAKNPVYLQMNSLNPEDTAVYYCAGTYILYNDWLYHYFPEEYDSWGQGTQVTVSS	low polyreactivity
QVQLVESGGGLVQAGGSLRLSCAAYGSIFYWYAMGWYRQAPGKERELVAAISSSNDSTDYADSVKGRFTISRDNAKNTVYLQMNSLKPEDTAVYYCAALYGTIQYDYWGQGTQVTVSS	low polyreactivity
QVQLVESGGGLVQAGGSLRLSCAAYGSIYSKYAMGWYRQAPGKEREMDAAISWSDGTTYYADSVKGLFTISRDNAKYTVYLQLNSLKPEDTAVYYCNTPPQWLGRYITITFDYWGQGSQVTVSS	low polyreactivity
QVQLVESGGGLVQAGGSLRLSCAAYGSTFGYNAMGWYRQAPGKESELVAAISSTSGSTYYADSVKGRFTISRDNAKNTVYLQMNSLKPEDTAVYYCAADDGDTNAYYFWKPYYYWGQGTQVTVSS	low polyreactivity
QVQLVESGGGLVQAGGSLRLSCAAYGSTFNGNAMGWYRQAPGKERELVARISFDGTSTYYADSVKGRFTISRDNAKNTVYLQMNSLKPEDTAVYYCNVMFPRDHGFPGYGYWGQGTQVTVSS	low polyreactivity
QVQLVESGGGLVQAGGSLRLSCAAYGSTFRRYGMGWYRQAPGKERELVAAISKGGTRTYYADSVKGRFTISRDNVKNTVYLQMNSLKPEDTAVYYCAAAGASSSTPQKEDYWGQGTQVTVSS	high polyreactivity
QVQLVESGGGLVQAGGSLRLSCAAYGSTFSRYAMGWYRQAPGKERELVAAISWGGNTYYADSVKGRFTISRDNAKNTVYLQMNSLKPEDTAVYYCASVGGRFFAPYIWSVDSYDYWGQGTQVTVSS	high polyreactivity
QVQLVESGGGLVQAGGSLRLSCAAYGSTFSWYTMGWYRQAPGKERELVAAISWSGGRTYYADSVKGRFTISRDNAKNTVYLQMNSLKPEDTAVYYCAAYDYRYSLGDYQFYYWGQGTQVTVSS	low polyreactivity
QVQLVESGGGLVQAGGSLRLSCAAYGSTITYYPMGWYRQAPGKERELVAAISGSGRTHYADSVKGRFTISRDNAKNTVYLQMISLNPEDTAVYYCNARQYTYNYAFTRCKYDYWGQGTQVTVSS	high polyreactivity

Sequence	polyreactivity (PSR sort gate)
QVQLVESGGGLVQAGGSLRLSCAAYGYIIDRYAMGWYRPAPGKERELVAAISSDGSTYYADSVKGRFTISRDNAKNTVYLQMNSLKPEDTAVYYGAADGGESAWGGYDYWGQGSQVTVSS	low polyreactivity
QVQLVESGGGLVQAGGSLRLSCAAYGYTFRYNAMGWYRQAPGKERELVATITRGGSTNYADSVKGRFTISRDNAKNTVYLQMNSLKPEDTAVYYCNKEAAPRGFVPSYYGRDYWGQGTQVTVSS	low polyreactivity
QVQLVESGGGLVQAGGSLRLSCADSARTFNWNAMGWYRQAHGKERELVATISRRGGSTYYADSVKGRFTISRDNAKNTVYLQMNSLKPEDTAVYDCNTAGRYGYDYWGQGTQVTVSS	high polyreactivity
QVQLVESGGGLVQAGGSLRLSCADSGFIFGYYAMGWYRQAPGKERELVAAINKNGGSTYYADSVKGRFTISRDNAKNTVYLQMNSLKPEDTAVYYCAARARGYAWTFDYWGQGTQVTVSS	high polyreactivity
QVQLVESGGGLVQAGGSLRLSCADSGFIIGRYTMGWYRQAPGKERELVAAISFRGGSTYYADSVKGRFTISRDNAKNTVYLQMNCLKPEDTAVYYCAAYSSGPYGFDYWGQGTQVTVSS	high polyreactivity
QVQLVESGGGLVQAGGSLRLSCADSGFTCYYYTMGWNRPAPWKGRELVAAISWSGGSTYYADSVKGRFTISRDNAKNTVYLQMNSLKPEDPAVYYCNKAYPGRTYDYWGQGSQVTVSS	high polyreactivity
QVQLVESGGGLVQAGGSLRLSCADSGFTFDWYAMGWYRQAPGKERELVAAISGRGGSTYYADSVKGRFTISRDNAKNTVYLQMNSLKPEDTAVYDCNAVYGAYRYEYWGQGTQVTVSS	high polyreactivity
QVQLVESGGGLVQAGGSLRLSCADSGFTFYRYARGWYRQAPGKERELVADITSGGSTNYADSVKGRFTISRDNAKNTVYLQMNSLKPEDTAVYYCNADRWYGSVYRYGYWGQGTQVTVSS	high polyreactivity
QVQLVESGGGLVQAGGSLRLSCADSGFTLNAMGWYRHAPGKERELVAAITTGGRTYYADSVKGRFTISRDNAKNTVYLQMNSLKPEDTAVYYCGAHTYYYPVGFNYWGQGTQVTVSS	low polyreactivity
QVQLVESGGGLVQAGGSLRLSCADSGHIFFYYTMGWYRQAPGKEREMVAGITIGGSTNYADSVKVRFTISRDNAKNTVYLQMNSLKPEDTAVYYCNVVKYVYIYSYSEYYYWGQGTQVTVSS	low polyreactivity
QVQLVESGGGLVQAGGSLRLSCADSGITFVTYAMGWYRQAPGKERELVAAISRSGGRTYYADYVKGRFTISRENAKNTVYLQMNSLKPEDTAVYYCAAERKNKYDYWVQGTQVTVSS	high polyreactivity
QVQLVESGGGLVQAGGSLRLSCADSGITLYYNAMGWYRQAPGKERELVAAISWSGDSTYYADSVKGRFTISRDNAKNTVYLQMNSLKPEDTAVYYCAADRYTYYHYAWYEYWGQGTQVTVSS	low polyreactivity
QVQLVESGGGLVQAGGSLRLSCADSGLIFEDYAMGWYRQAPGKERELVAAIDWGGGSTYYADSVKGRFTISRDNAKNTVYLQMNSLKPEDTAVYYCAADSYFSYRYNYWGQGTQVTVSS	low polyreactivity
QVQLVESGGGLVQAGGSLRLSCADSGLIFQYYVMVWYRQAQGKERELVAAISARGGGTYYADSVKGRFTISRDNAKNTVYLPMNSLKPEVTAVYYCAAHQVYAGPGYDYWGQGTQVTVSS	high polyreactivity
QVQLVESGGGLVQAGGSLRLSCADSGLIFRHYAMGWYRQAPGKERELVASISYRGGSTYYADSVKGRFTISRDNPKNTVYLQMNSLKPEDTAVDYCAADTYYPTYWSVTYGYDYWGQGTQVTVSS	low polyreactivity
QVQLVESGGGLVQAGGSLRLSCADSGLIFTQYAMGWYIQAPGKEREFVAAITWNGGRTYYADSVKGRFTISRDNAKNTVYLQMNSLKPEDTAVYYCATRNTRFHLDYWGQGTQVTVSS	high polyreactivity
